Measurements from the domain aggregation screens of Martell et al. (2025).

Assay: soluble fraction after stress (log2 fold change); higher = more stays soluble; pooled small domains, quantitative proteomics
Conditions: stress: 75 degC
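Further: 20 min heating vs room temperature control held 20 min.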

Sequence | soluble fraction (log2)
HMGNEEEEAIREAEEAIERVLEYGEPQELNPQNGFIRRLQHQLAEKSHLSSESVGVEPYRRVRISK | 0.193
HMGNFFDSAILALKNAIQENYGGNVSQAARSLGISVPTLHTWIKGDRKPSLEKLSPILDALNAKIVL | -1.06
HMGNFGDLLKILLDEKELSMGELSKKSGIDKSTISRIANNKQKPNINHLEKMAIHLNINLEELLKASGYEF | -0.666
HMGNFQNIFRKLRTSSNLTQNAIAEKLGISRSTIGMYETGAREPDFETLEKIADYFNVDTDFLLGRTNQTT | -0.315
HMGNKDAQLVHLAKMNEIQIELMKTGRGYMVTDQNVYNLAKKMGENMGFKHPDLFLTDPAKV | -0.0897
HMGNKDIEILFSEIVEMRNRIIHGFRITSKQGEQILATKTRKKDGNIQFEITKEYLLDFIKKNEELSDMLY | -2.46
HMGNKWALLVVFILNENGSTRFNQLARQIPDISTKVLSNTLQILEADGLVKRTVFPEVPIRVEYELTATGK | -3.92
HMGNLIIFYDEGIGSGPLMKAVNDSGVSLVYEYKNLHGIAIRPSAKTNIQDAIAYFQKVNGVLSVEQ | -2.92
HMGNNKLVLSLAVALKNTPNFLKNYNYKISKDKKFIEILLSKQINEVSDIIINLKKNNINIVDLNIKKR | -1.85
HMGNNTEITYSEFIRQAEAGNVQYVTVDGEKLLISATDGKSYYTINPRDDQMTDRLLNSGVEIRAEPQ | 0.021
HMGNRQEQVRIIRDLWRQLADAGQPVPAKHLTLDLDALDATQLTKLEDQAHGWLAKLSAQADLADAA | -0.0412
HMGNTMIVILKHEARQEQIDRLKQFLLGMGLRIDESKGENSTILGLVGDTTRVDADLISSLDAVEAVRRV | -0.891
HMGNWENVEKETTEAIMAVKNGEAVWVDLAPANRMIRQMQHELVEQYGLLSQSYGKEPKRRIRIFQNP | -0.462
HMGPDALSIGRRVRQVRTARGMTLDELAAAVSRAPSQLSMIETGKREPKLSLLQAIARALGTTIDALLT | -0.856
HMGPDGLFAKFREPETGKDLLITQNVFVEQVLIKGVLTRTLTDAEANTYRAPFVNPEKRFPIYVWPNELP | 0.014
HMGPEAFPVPYIVDIELDRAIYVIEQSGFIVGQKLEANDDNVPRGFVISQNPAAGTKLGPNSVVDLVISSG | -1.18
HMGPEQLIGKTGIAASELAPRGEVKIEGQIWRAETVGDHVKQGEPVEVVSREGLILRVKPKHPQTRG | 0.0258
HMGPEVQLAYSEFLAKVKVGEVNDVMVKGNEIHGHFSDGRTFSTYSPNDPDLVEKLNKNKVMIKAAPP | 0.00889
HMGPFYFDQDGKAYSGLLNRNGEILYFADPFNAAVKNTTKTIDGKTYTFNQNGRATSIDGIPLEPP | 0.0904
HMGPGDTTIPTTIIGMSLEEARNELSAAGLLVARIIPVDSNSRTGTVLKITPDAGSIIKAGSGVELEIAS | -0.101
HMGPGFVGGSVLSGGNRGEGDPVANAQVFITDMDDNVVAFTKTDAEGNFDMTNLAYGDYKMYVDILNK | 0.126
HMGPGSYVVNVKPYAYVSINGRDYGRTPVGPIRLDPGTYKVVFTHEHRPSFSRTIVVEAGRETFETFPYPG | -2.06
HMGPLPIDSRYFNNLVPYTGITHVNSVIPEAERHIGLTVVVKTGSTYSEYWYRTGVTNSSLELKT | -1.41
HMGPLYARVKAIVLARIMGGDWPPGTALPAEMELARALGVSQGTVRKALDALTAEQVVVRRQGSGTYVAE | -1.75
HMGPNYYDILEIPTDASPSEITQAFRKKALEWHPDKNPNNLEEATSRFIEIVEAYRVLSSKDSKLQYDTG | -0.213
HMGPSVGMTVGEMERDLIFRTLETVGDNRTKAADMLGISIRTLRNKLNEYREAGFEWPRKAG | -0.223

Sequence | soluble fraction (log2)
HMGQAVTMLKAGRLLANAKGTGAPVRSLEPGMLLYPTGVKEGTMWEVEDEMGNKGWVNSTLMETA | -0.6
HMGQAVTVPELKGLSFDEAIEKLDDAGLKYEVVDSNYVEDMKPGTVFETLPEAGSRVKPRRIVFLTINAF | -0.257
HMGQDTTIVVRRGESLLGIAARLLPATDFYTTGELAEGIRTASGMENDRLIPGQTLRVPLNSG | -0.24
HMGQGEISVPRLEGLSLRETSELLGLFGLRLEAAGSGIALSQNPPAGARVKAGDVIQVDFGEPGN | 0.0756
HMGQHSAELKLHPQDLGQVTISMKVEDNQAQLQMVSGHGHVRAALEAALPQLRSQLADSGIQLTQSSIS | -0.198
HMGQISDEETLKTVASRIIDANPDEARKYRSGKTGLLGFFVGQVMKATQGEANPKLASRIVKELLE | -0.15
HMGQLIVTIPNFERRPAEQAIQKLEELGLVPEEKQIYHDDIPAGSVIYTDPSKDSQVNAGTKVYVYVSLG | -0.311
HMGQMGHAVVAKTDLAVGTPLTRDLVAVREVPVEWLHSSAITPEQFERAAGAVLAQPARGGEPLVWSQLEE | 0.111
HMGQPRPLTAEDFDFLSDDEIAEMRKALSNGEMLRLRELIAQIGEKRPFLAERLLVLAKQYNYEDLSRLLE | -0.472
HMGQQPPVTEIYKNHDGNKDGLLEAGEVTGSRYARQFPRWDVNGDQKVSPQEVIAFRKRFGIAADGTLL | 0.0193
HMGQQTVEPLSRRELEVLSLLAKGLSNQQIADRLVISVRTVKKHVENIHGKLGVQSRTQAVARARELGLV | -1.24
HMGQTYTITINPTPADAKVIIDGVATNSVEAIDGRTLIWSVSKPGYLTKSGNYTVTGKNETLNIVLKEDPD | 0.163
HMGQVLEGVFRRKANGKNAFIPDGGGEPILVAERNSAHAMDGDRVKATLLARRKHHVREAQVTEILKRSSK | -0.258
HMGQVSDENQLNKVIDEVIKNYPIQVEQFKAGKEPILQFLKGMVMKATEGSADPAVAEKLLRKKL | 0.0979
HMGQYLDAATVAAVYHAYHARNWTQATLAKELKVARPTLSNVLNGREAPSVELAARIRAFLGSPEP | -3.16
HMGRAAEETETFRTQGELDARIKELQGQMRDAAANLEFERAAGLRDTLKRLRTRGLGLSASP | 0.0633
HMGRENGTVKWFNTSKGFGFITRDDGGDVFVHFRSIQGEGHRALQEGQRVSYVVANRDKGLQAEDVTILN | -0.277
HMGRKRLADYGLNDTEQKIVRKIADGLSNREIAQALYLSEGTVKNYITDILGKLELRDRTQIAIFYLREIG | -0.941
HMGRLTTKIVLYDRIENIVPERRKELVADIEKRIGVKVEVLEIGHVDFVRDAAWLKVSYYLAPGE | -2.21
HMGRNSTPKEPLKKFEVSPITEKEVRILDGRFGPYITDGATNVTVPKTITIEEITFERALDMLAEKAAKGP | 0.0521
HMGRPQISDELRNAIIEVAKDNRDWGYIRIQGQLKYLGYRVSTATIGKVLKKAGLEPQPDRRRK | -1.92
HMGRPWRIGDVVNVSRPTGDGGGFTKGLITRIYPTTVQVTWNPDLQHARPWTTMEKKQYLIFVYHDDE | -3.09
HMGRQTITLPDFSGQDLEQVKARLTEWGLVPEEKSVFSDSVPLGSVVRTVPAEGDEVSVGDTVTVYKSLGR | 0.19
HMGRRDLSWQPAAGGVSIDGLKAGEAWTLFGLNGRILKQGYAPEGQMSLAVNAGLFVLRGAESGVIRIAVA | -1.38
HMGRSYTIKSGDTLWAIATRYYGNGAQYSKIYNANKGTIESVAKSRGFRSSQNGHWIFPGTSITI | -0.722
HMGRTITVGIAEDADIKDIAKMLEEKGLISDYRLFVVQELLSAQHDKIKPGIYDLSTDMKAEEMLEILAG | -0.248

Sequence | soluble fraction (log2)
HMGRTKEEIFNILKERIVTLQYEPGKILNEIELSEEFEVSRTPIRTVFQQLEAVKLVSIVPRYGVQVA | -1.15
HMGRYATVPDVVGSTPEVARELIRSEGLRYVLSEETVYSDSDTGTVGRTDPESGTRMSADDEVVVYLS | 0.0649
HMGRYVIQIASFSSKNNAIEAADKLGGFVVQSGRFYRVRTGPFATRGEADAALASARRVGYRDAFIDTS | -1.59
HMGSAIAHAIASLPDRYRELLLLKYDTGYSEKEIAQLLGMTEANVKKTIQRAKAKLQTLLDEMEA | -1.43
HMGSAKAQLYDLMNAHQVTRNQIQDIVAEKGYFPAGTPIENYPDDFVKGVLVGAWDQVHKAILDKEI | 0.326
HMGSEISLNAFNIPKGSVSVTAGGTKLVENQDYTVDYTLGRIKILNEGILNSGVPIQVNFENNTLFN | -0.0124
HMGSEYILTIIPTPADATVFINGVKKNSASGVNGQILSWEVTKEGYIPQSGTFTINGKNETIEVVLQPQT | 0.122
HMGSFFSKATAPVRTTGGDGLYKHGSIWFNTSTGRLFVYIPDDRYTGLLDTHNGDIGYWVDVS | -2.53
HMGSFGAMLKRNRKLAGLTQEQLAEKLDVSTVAVQNWESGKNQIRSEKLTKLSYLFNIPLETLIHEMLIS | -1.12
HMGSFISADEALAKALSHAGLDQSAIRELEMDSELDDDVPHYSIDFKSGNLEYEYEISATDGSVLKFEQD | 0.118
HMGSKEQELVILNNILERQLQAINLQKSAAGPMVNLRNVHNTLTKLVEAAGLKNVETYFTDPVIGAAQ | -0.0941
HMGSNTLEDAYKVLGITPDATDDEVRKAYKKMVIQHHPDKVANLGEDVKKAATIKLQEINNAKEIIFKARN | 0.0129
HMGSQSYVAIVNERFKESDIVELGGSVGSRTGDIITLHFRNSSPNELKNITGIVYLQVANKVTPKL | -1.26
HMGSTDTLEDALEAAEKISYPVIIKATAGGGGRGMKVASSLEELKKVYHTTKLEAKNAFGNDQVYIEKYL | 0.162
HMGSTYGISRVDNETSRTHGWLVTIQRRGVIYRKHFSDGVFGGKQRSFAAAKEYRDEVIAAHP | -2.68
HMGSVVATLRKLIIDGHYPAGTRLAEIPVANALGVSRTPVRLAFRTLQQEGLLQTVGKRGIVVRAF | -1.28
HMGSWDDFFNAIRLDNPNTLQALLQRGFDPNTVDQQGTPALMRALQEQSYRAAEVLADHPQI | -0.603
HMGTAGLSPWHKIAVLMIALGPEGASELMRHFGEDEVEQVVQAIADLKNVPSELQDAVLLEMEGALQEG | 0.00911
HMGTDVFIMTGGTRKRGATWSYYFDLGKIDGKRQKKEKGGFKTKKEAETALAKAINEYNNAGA | -0.506
HMGTFIATVEANSLDIYKSMSSNETIGKANKGEVFQILEDMGSGYARVSYNDVEGYLSIRDGDATIEE | 0.0208
HMGTGADQVSWKTGDKVTHKKWGEGTVVKVSGSGNDKELDIAFPQQGVKRLLASFAPIKKVT | -0.0162
HMGTGQTNEKLAVLTNIQKTQEQILLTLGAKNPLVNLKQYRETLAKILSLSGYKNSNEFFLDPM | -0.184
HMGTGTYQVWSANGLGVRMRSGPGTGYRILAVYSVGTSVTVLQKGAYWSYIRVGSRTGYMMNQFLVSG | 0.609
HMGTGVEQGKQYRTLKRDFDGASGIKVNGDFYRLRTSDTGMTELPAGTEVTFERFDGTTAVVHT | 0.0416
